Tests used:
[1] = system: bone marrow-derived monocytes (BMMs); experiment: Inhibition of wild type RANKL-induced TRAP activity by mutant RANKL in BMMs; format: cell-based, mouse; conditions: BMMs treated with mutant and wild type RANKL; even at a 3:1 wild type:mutant ratio
Experimental: To investigate the optimized inhibitory effect against wild type RANKL, bone marrow-derived monocytes (BMMs) were treated with purified mutant and wild type RANKL (FIG. 2E, F). […] Therefore, we used mRANKL-MT3 for subsequent experiments.
4-week old male BALB/c mice were purchased from Orient Bio (Gwangju, Korea) and kept in an animal facility approved by the Chosun University Animal Management Committee (IACUC2017-A0002). After obtaining bone marrow cells from mice, bone marrow mononuclear cells were seeded into 96-well plates (1 Y 10^4 cells/well), and in the absence or presence of various concentrations of compounds, incubated with M-CSF (100 ng/mL) overnight before stimulation with RANKL (50 ng/well). The medium was replaced every other days. 6 days later, the cells were fixed with 4% paraformaldehyde, permeated in 0.1% Triton X-100, and washed with PBS. Then, TRAP activity (Sigma-Aldrich, St. Louis, Mo., USA) staining was performed. TRAP-positive multinuclear cells containing 5 or more nuclei were counted as osteoclasts.

[2] = system: BMMs; experiment: Real-time PCR of osteoclastogenesis mRNA in RANKL-induced BMMs; format: cell-based, mouse; conditions: mRANKL-MT3-induced BMMs compared with mRANKL-WT induced BMMs
Experimental: Meanwhile, for Real-time PCR, BMM cells were incubated with 30 ng/mL M-CSF and 75 ng/mL sRANKL (R&D Systems) or isolated RANKL in 6-well plates. Total RNA was extracted using TRIzol reagent (Invitrogen, Thermo Fisher Scientific, Inc.). The cDNA was synthesized from 2 μg total RNA using ReverTra Ace qPCR RT Master Mix (TOYOBO, Osaka, Japan). Real-time PCR was conducted on a CFX Connect RealTime PCR Detection System (Bio-Rad, Hercules, Calif., USA) in a reaction mixture (total volume, 20 μL) containing IQ SYBR Green Supermix (Bio-Rad), 10 pmol forward primer, 10 pmol reverse primer, and 1 μg cDNA.

[3] = system: RANKL; experiment: Western blot of serum for antibodies after mtRANKL immunization; format: in vivo, mouse; conditions: mice immunized 3 times with 0.2 mg mtRANKL with aluminum hydroxide adjuvant
Experimental: Proteins were separated by SDS-PAGE and electropermeated into a nitrocellulose membrane (Bio-Rad). After blocking the membrane with 5% (weight/volume) skim milk in TBST [10 mM Tris (pH 7.5), 150 mM NaCl, 0.1% (vol/vol) Tween 20], each mouse serum for primary antibody in the blocking solution was examined. The membrane was washed three times with Tris buffered saline. […] peroxidase (HRP)-conjugated secondary antibody was diluted 1:5000 with TBST in 1% (wt/vol) skim milk powder. ECL_system (Amersham Pharmacia Biotech) was used as the membrane.
17-week-old […] BALB/c mice were equally divided into 3 groups. The group was divided into a negative control group in which PBS was intraperitoneally injected, a group in which only wtRANKL was injected, and a group in which wtRANKL was injected after immunization with mtRANKL for 52 days. mtRANKL was injected after mixing with an aluminum hydroxide adjuvant. The immunization process started with 1st immunization of mtRANKL at 52 days, 2nd immunization at 39 days, 3rd immunization at 14 days each before injection of wtRANKL, and a total of 3 immunizations was performed. The amount of mtRANKL was 0.2 mg per mouse.
To determine whether antibodies were produced due to mtRANKL immunization, Western blot of Reference Example 4 was performed on the collected serum, and the results are shown in FIG. 6A.

B1: mRANKL-MT3: mouse RANKL mutant: K180R, D189I, R190K, H223F, H224Y; nucleic acid SEQ ID NO: 3 (protein, UniProt O35235 158-316, looked up, variant K180R D189I R190K H223F H224Y)
chain: KPEAQPFAHLTINAASIPSGSHRVTLSSWYHIKGWAKISNMTLSNGKLRVNQDGFYYLYANICFRFYETSGSVPTDYLQLMVYVVKTSIKIPSSHNLMKGGSTKNWSGNSEFHFYSINVGGFFKLRAGEEISIQVSNPSLLDPDQDATYFGAFKVQDID
- inhibitory effect against wild type RANKL (TRAP activity) [1]: the most effective at inhibiting TRAP activity
- TRAP, NFATc1, and OSCAR mRNA expression [2]: down-regulated
- antibodies in serum (Western blot) [3]: antibodies were detected

Source: patent US20210403586A1, “MUTANT OF RANKL AND PHARMACEUTICAL COMPOSITION COMPRISING SAME FOR PREVENTING OR TREATING OSTEOPOROSIS” (INDUSTRY-ACADEMIC COOPERATION FOUNDATION CHOSUN UNIVERSITY, priority 2018, published 2021)
